# B1: endogenous IFITM1 (natural protein, UniProt P13164 1-125, looked up)
# chain: MHKEEHEVAVLGPPPSTILPRSTVINIHSETSVPDHVVWSLFNTLFLNWCCLGFIAFAYSVKSRDRKMVGDVTGAQAYASTAKCLNIWALILGILMTIGFILLLVFGSVTVYHIMLQIIQEKRGY
# notes: Interferon-induced transmembrane protein 1 (IFITM1), human, endogenous
# Target: T1, FLAG-IFITM3 G95L (human, UniProt Q01628 1-133, G95L)
# T1 construct: Interferon-induced transmembrane protein 3 (IFITM3), human, with G95L in the GxxxG motif of the CD225 domain; also called pQCXIP-FLAG-IFITM3 G95L; source: HEK293T, stably expressing pQCXIP-FLAG-IFITM3 G95L, in lysate; HEK293T, transiently transfected, in fixed cells
# Assay: affinity purification with mass spectrometry; anti-FLAG (M2) immunoprecipitation from whole cell lysates (1% Triton X-100, 150 mM NaCl) of HEK293T stably expressing FLAG-IFITM3 WT, G95L or Empty Vector; TMT labelling, duplicate MS runs
# Conditions: partners not purified
# T1 sequence (Q01628 whole entry G95L, the tested form may be a part): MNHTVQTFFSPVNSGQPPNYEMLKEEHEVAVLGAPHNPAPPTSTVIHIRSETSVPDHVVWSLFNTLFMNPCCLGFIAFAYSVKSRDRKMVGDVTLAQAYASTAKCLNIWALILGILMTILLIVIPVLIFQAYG
binder,measurement,value
B1,fold more IFITM1 pulled down by IFITM3 WT than by IFITM3 G95L,~9 fold

# Reference: doi:10.1101/2025.06.01.657267, “IFITM1 and IFITM3 cooperate to restrict virus entry in endolysosomes” (bioRxiv, 2025)
